For the assay, the target named is full length (FL) human recombinant TPPP/p25 (Tubulin Polymerization Promoting Protein) (human) (UniProt O94811). In words: SDS-PAGE without reducing agent; 5 ug protein from the 200 uM stock solution loaded directly onto the gel in the absence of DTE; disulphide-stabilized dimers.

Data on one substance can be found in PMC5225419.

Turning to “full length (FL) human recombinant TPPP/p25 (Tubulin Polymerization Promoting Protein) (from UniProt O94811 1-219) (natural protein; other documents disagree on this pair)”, the stoichiometry N stood at 2.

As usually defined, the stoichiometry N is a count of units in the complex or per binding partner.
